Data published in patent US20180051253.

Target: T1, Nuclear Respiratory Factor 1 (NRF1), Q16656
T1 chain: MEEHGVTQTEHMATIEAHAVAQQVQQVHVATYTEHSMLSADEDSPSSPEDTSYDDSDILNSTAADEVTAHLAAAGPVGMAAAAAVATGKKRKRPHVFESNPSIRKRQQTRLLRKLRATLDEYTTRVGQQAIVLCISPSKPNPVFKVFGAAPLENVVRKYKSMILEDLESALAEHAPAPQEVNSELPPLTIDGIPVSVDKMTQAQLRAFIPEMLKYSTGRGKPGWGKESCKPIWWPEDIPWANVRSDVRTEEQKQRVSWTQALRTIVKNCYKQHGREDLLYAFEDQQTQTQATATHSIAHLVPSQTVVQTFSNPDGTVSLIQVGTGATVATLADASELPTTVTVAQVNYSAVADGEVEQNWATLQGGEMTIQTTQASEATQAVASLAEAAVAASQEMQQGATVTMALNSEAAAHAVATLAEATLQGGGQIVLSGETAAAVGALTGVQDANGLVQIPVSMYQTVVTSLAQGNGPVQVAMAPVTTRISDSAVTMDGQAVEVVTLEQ

B1: endogenous SIRT7 (protein)
chain: MAAGGLSRSERKAAERVRRLREEQQRERLRQVSRILRKAAAERSAEEGRLLAESADLVTELQGRSRRREGLKRRQEEVCDDPEELRGKVRELASAVRNAKYLVVYTGAGISTAASIPDYRGPNGVWTLLQKGRSVSAADLSEAEPTLTHMSITRLHEQKLVQHVVSQNCDGLHLRSGLPRTAISELHGNMYIEVCTSCVPNREYVRVFDVTERTALHRHQTGRTCHKCGTQLRDTIVHFGERGTLGQPLNWEAATEAASRADTILCLGSSLKVLKKYPRLWCMTKPPSRRPKLYIVNLQWTPKDDWAALKLHGKCDDVMRLLMAELGLEIPAYSRWQDPIFSLATPLRAGEEGSHSRKSLCRSREEAPPGDRGAPLSSAPILGGWFGRGCTKRTKRKKVT
SIRT7 occupancy at gene promoters (ChIP-qPCR) after NRF1 siRNA: NRF1 knockdown (KD) using siRNA reduced SIRT7 occupancy at the promoters of mRPs and mTFs, but not RPS20
